The source of these data is publication PMC9758175.

The target in test [1] is WspR-His~P (Lysobacter enzymogenes OH11). The test is described as follows: MST; 100 nM WspR-His labelled with RED-Tris-NTA, titrated with MBP-RpfG or its variant; 50 mM Tris pH 7.5, 150 mM NaCl, 10 mM MgCl2, 0.05% Tween 20; 25 °C; Monolith NT.115.
Test [2] addresses WspR-His (Lysobacter enzymogenes OH11). Described as above.
For test [3] the target is unchanged.
The target is the same in test [4]. The test is described as follows: MST; as the WspR-RpfG MST assay, with 10 μM DSF added.
Test [5] has the same target. The test is described as follows: MST; as the WspR-RpfG MST assay, with 10 μM c-di-GMP added.

Sequence of WspR-His (Lysobacter enzymogenes OH11) (main, as listed by the source): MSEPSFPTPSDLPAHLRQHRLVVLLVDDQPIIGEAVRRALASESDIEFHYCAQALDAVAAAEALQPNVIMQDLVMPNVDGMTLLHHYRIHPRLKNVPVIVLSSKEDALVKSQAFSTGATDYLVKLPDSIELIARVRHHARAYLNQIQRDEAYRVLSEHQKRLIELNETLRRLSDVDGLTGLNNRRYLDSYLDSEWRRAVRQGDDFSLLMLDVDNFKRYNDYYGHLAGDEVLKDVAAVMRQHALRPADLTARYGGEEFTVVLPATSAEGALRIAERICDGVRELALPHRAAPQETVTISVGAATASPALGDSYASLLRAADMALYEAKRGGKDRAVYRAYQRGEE
Sequence of WspR-His~P (Lysobacter enzymogenes OH11) (main, as listed by the source): as above

Regarding MBP-RpfG^H190A (enzyme), the Kd (as a rule, the constant that tells how readily two partners part at equilibrium) came out at 560 nM in test [1] and 200 nM in test [2]. The same substance gave a reduction of c-di-GMP production by WspR-His from GTP (HPLC peak area) on addition of MBP-RpfG^H190A in test [3] of 34%.
phosphorylated RpfG (RpfG~P) (enzyme) came in with a Kd in test [2] of 240 nM.
Regarding MBP-RpfG (enzyme), the Kd is 930 nM in test [1], 150 nM in test [2], 250 nM in test [4] and 320 nM in test [5]. This substance also yielded a reduction of c-di-GMP production by WspR-His from GTP (HPLC peak area) on addition of MBP-RpfG in test [3] of 82%.
